Substitutions are numbered along the chain they refer to.
B1: H40L36 (Fab, V domains shown)
VH: QVQLVESGGGVVQPGRSLRLSCAASTFTFSNYAMHWVRQAPGKGLEWVAVISYDGSNKYYADSVKGRFTISRDNSKNTLYLQMNSLRPEDTAVYYCARGGVAAFDYWGQGTLVTVSS
VL: not shown
notes: Soluble Fab
B2: H38L55 (Fab, V domains shown)
VH: B1 VH with T26G, A102G
VL: DIVMTQSPLSLPVTPGEPASISCRSNQSVLHSNGRHYLDWYLQKPGQSPQLLIYMVFNRASGVPDRFSGSGSGTDFTLKISRVESEDVGVYYCMQAQQTPVTFGQGTRLDIK
notes: Soluble Fab
B3: H38L72 (Fab, V domains shown)
VH: B1 VH with T26G, A102G
VL: EIVLTQSPATLSVSPGERATLSCRASQSVSSYLAWYQQKPGQAPRLLIYDASNRATGIPARFSGSGSGTDFTLTISSLEPEDFAVYYCQQRSNWPLTFGQGTKVEIK
notes: Soluble Fab
B4: H37L40 (Fab, V domains shown)
VH: B1 VH with T26G
VL: DIVMTQSPLSLSVSPGEPASISCRSSQSLLDSNGHNFLDWYLQKPGQSPQLLIFVGSYRALGVPDRFTGSGTGTDFTLKISRVEPEDVGVYYCMQGLQAPITFGQGTKLDIK
notes: Soluble Fab
B5: H38L49 (Fab, V domains shown)
VH: B1 VH with T26G, A102G
VL: not shown
notes: Soluble Fab
B6: H37L48 (Fab, V domains shown)
VH: B1 VH with T26G
VL: not shown
notes: Soluble Fab
B7: H38L39 (Fab, V domains shown)
VH: B1 VH with T26G, A102G
VL: DIVMTQSPPSLPVTPGEPASISCRSSQSLLHTNGYNYLDWYLQKPGQSPQLLIYLGSNRASGVPDRFSGSGSGTDFTLTISRVEAEDVGVFYCMQALEPPYTFGQGTKLEIK
notes: Soluble Fab
B8: H37L44 (Fab, V domains shown)
VH: B1 VH with T26G
VL: DIVMTQSPVSLAVTPGEPASISCRSSQSLLHSNGYNYLDWYLQKPGQSPQLLIYLGSTRASGVPDRFSGSGSGTDFTLKINRVEAEDVGVYYCMQALQSPFTFGGGTKVEIK
notes: Soluble Fab
B9: H37L47 (Fab, V domains shown)
VH: B1 VH with T26G
VL: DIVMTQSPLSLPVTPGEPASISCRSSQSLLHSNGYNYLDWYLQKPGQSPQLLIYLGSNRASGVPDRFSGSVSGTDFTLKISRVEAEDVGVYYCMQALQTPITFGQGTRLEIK
notes: Soluble Fab
B10: H37L50 (Fab, V domains shown)
VH: B1 VH with T26G
VL: not shown
notes: Soluble Fab, clone B
B11: H37L41 (Fab, V domains shown)
VH: B1 VH with T26G
VL: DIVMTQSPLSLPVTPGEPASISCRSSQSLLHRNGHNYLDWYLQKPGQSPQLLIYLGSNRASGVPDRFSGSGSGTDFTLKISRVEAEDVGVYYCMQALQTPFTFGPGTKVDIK
notes: Soluble Fab
B12: H38L54 (Fab, V domains shown)
VH: B1 VH with T26G, A102G
VL: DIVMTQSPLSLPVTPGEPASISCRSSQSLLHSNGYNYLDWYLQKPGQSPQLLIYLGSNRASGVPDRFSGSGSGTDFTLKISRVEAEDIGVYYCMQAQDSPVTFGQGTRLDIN
notes: Soluble Fab
B13: H40L53 (Fab, V domains shown)
VH: B1 VH
VL: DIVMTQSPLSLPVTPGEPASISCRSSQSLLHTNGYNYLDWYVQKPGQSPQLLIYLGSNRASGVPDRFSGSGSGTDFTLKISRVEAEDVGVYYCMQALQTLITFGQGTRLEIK
notes: Soluble Fab
B14: H40L52 (Fab, V domains shown)
VH: B1 VH
VL: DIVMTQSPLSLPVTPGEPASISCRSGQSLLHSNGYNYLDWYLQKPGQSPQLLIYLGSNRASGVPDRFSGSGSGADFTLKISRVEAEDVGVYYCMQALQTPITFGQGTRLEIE
notes: Soluble Fab
B15: H37L45 (Fab, V domains shown)
VH: B1 VH with T26G
VL: B8 VL with E110Q
notes: Soluble Fab
B16: H36L35 (Fab, V domains shown)
VH: B1 VH with T26G, N31S
VL: not shown
notes: Soluble Fab
B17: H40L42 (Fab, V domains shown)
VH: B1 VH
VL: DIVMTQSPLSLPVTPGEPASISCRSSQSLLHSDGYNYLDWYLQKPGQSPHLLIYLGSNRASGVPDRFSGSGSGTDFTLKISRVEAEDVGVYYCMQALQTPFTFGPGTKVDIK
notes: Soluble Fab
B18: H41L51 (Fab, V domains shown)
VH: B1 VH with T26G, F27S, N31Y
VL: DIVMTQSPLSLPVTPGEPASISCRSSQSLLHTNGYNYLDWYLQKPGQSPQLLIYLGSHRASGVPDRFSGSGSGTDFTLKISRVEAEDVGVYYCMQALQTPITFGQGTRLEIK
notes: Soluble Fab
B19: H42L38 (Fab, V domains shown)
VH: B1 VH with G10A, V11M, T26G, T28P
VL: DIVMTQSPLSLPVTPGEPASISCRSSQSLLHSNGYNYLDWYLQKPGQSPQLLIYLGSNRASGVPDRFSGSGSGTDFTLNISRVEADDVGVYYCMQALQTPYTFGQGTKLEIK
notes: Soluble Fab
B20: H39L43 (Fab, V domains shown)
VH: QVQLVESGGGVVQPGRSLRLSCAASGFTFSNYAMHWVRQAPGKGLEWVAVISYDGSNKYYADSVKGRFTISRDNSKNTLYLQMNSLRPEDTAVYYCARGGVAAFDYWGQGTLVTV
VL: not shown
notes: Soluble Fab
B21: H39L37 (Fab, V domains shown)
VH: B20 VH
VL: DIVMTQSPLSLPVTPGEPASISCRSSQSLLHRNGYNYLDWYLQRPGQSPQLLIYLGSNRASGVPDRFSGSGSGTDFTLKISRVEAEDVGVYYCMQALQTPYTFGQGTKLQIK
notes: Soluble Fab
B22: H39L44 (Fab, V domains shown)
VH: B20 VH
VL: B8 VL
notes: Soluble Fab
B23: H39L46 (Fab, V domains shown)
VH: B20 VH
VL: DIVMTQSPLSLPVTPGEPASISCRSSQSLLHSNGNNYLDWYLQKPGQSPQLLIYLASNRASGVPDRFSGSGSGTDFTLKISRVEPEDVGLYYCMQALQTPLTFGGGSKVEIK
notes: Soluble Fab
B24: H48L24 (Fab, V domains shown)
VH: QVQLVESGGGVVQPGRSLRLSCAASGFTISNYHIHWVRQAPGKGLEWVAFISYDGSNKYYADSVKGRFTISRDNSKNTLFLQMNSLTTEDTAVYYCAIVGPFDYRGQGTLVTVSS
VL: DIQLTQSPTFLSASVGDRVTITCRASQGISRYLAWYQQKPGKAPKLLIYAASTLQSGVPSRFSGSGSGTDFTLTFSSLQPEDFATYYCQQLNSYPFTFGGGTTVEIK
notes: Soluble Fab, clone A
B25: H83L34 (Fab, V domains shown)
VH: QVQLQESGPGLVKPSETLSLTCTVSGGSISSYYWSWIRQPPGKGLEYIGYIYYSGSTDYNPSLKSRVTISVDTSENQFSLKLSSVTAADTAVYYCARSPPVIRPAMDVWGQGTTVTVSS
VL: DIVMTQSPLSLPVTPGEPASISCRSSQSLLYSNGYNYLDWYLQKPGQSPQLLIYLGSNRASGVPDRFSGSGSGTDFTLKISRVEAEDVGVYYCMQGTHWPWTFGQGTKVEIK
notes: Soluble Fab
B26: H46L16 (Fab, V domains shown)
VH: QVQLVESGGGVVQPGRSLRLSCAASGFTFSNFNMHWVRQAPGKGLEWVALISYDGSNKNYADSVKGRFTISRDNSKNTLFLQMNSLRAEDTAVYYCMVVGAFDYWGQGTLVTVSS
VL: DIQMTQSPSSLSASVGDRVTITCRASQGISSYLAWYQQKPGKVPKLLIYAASTLQSGVPSRFSGSGSGTDFTLTISSLQPEDVATYYCQKYNSAPLTFGGGTKVEIK
notes: Soluble Fab, ITP patient A, clone A
B27: H47L64 (Fab, V domains shown)
VH: B26 VH with A24T, D62N, A88V
VL: EIVLTQSPDTLSLSPGDRATLSCRASQSVSNYLAWYQQKAGRAPSLLIYGTSRRATDIPDRFSGSGSGTDFTLTISRLEPEDSAVYYCQQYGSASLTFGGGTKVEIK
notes: Soluble Fab, clone A; also called putative GPIb/IX-specific Fab
B28: H47L63 (Fab, V domains shown)
VH: B26 VH with A24T, D62N, A88V
VL: EIVLTQSPGTLSLSPGERATLSCRASQSVGNNYLAWYQQRPGRAPRLVMYDPSSRATGIPDRFSGSGSGTDFTLTISRLEPEDFAVYYCQQYGNSPPTFGGGTKVEIK
notes: Soluble Fab, clone A
B29: H45L61 (Fab, V domains shown)
VH: B26 VH with N57S, N59Y, A61T, F80Y, A88P
VL: EIVLTQSPGTLSLSPGERATLSCRASQSVGSSYLAWYQQKPGQAPRLLIYGVSSRATGIPDRFSGSGSGTDFTLTISRLEPEDFAVYYCQQYGGSPLTFGGGTTVEIK
notes: Soluble Fab, clone A

target: T1, GPIIb/IIIa on intact human platelets (human, UniProt P08514 32-1039; P05106 27-788); assay: immunoprecipitation from biotinylated platelets; agrees with ELISA and Glanzmann platelet flow cytometry;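 also: precipitated biotin-labelled platelet membrane proteins visualized with biotinylated horseradish peroxidase-avidin complexes, scored for polypeptides behaving like GPIIb/IIIa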
T1 construct: whole, on cells; also called platelet GPIIb/IIIa; αIIbβ3
Excerpt: Precipitated, biotinylated platelet membrane proteins were detected with biotinylated horseradish peroxidase-avidin complexes (ABC Staining Kit, Pierce).

Binding result, no binding:
B1, B2, B3, B4, B5, B6, B7, B8, B9, B10, B11, B12, B13, B14, B15, B16, B17, B18, B19, B20, B21, B22, B23, B24, B25, B26, B27, B28, B29

target: T2, GPIa/IIa on a stable K562 cell line (UniProt P17301 30-1181; P05556 21-798, limits assumed); assay: flow cytometry on K562 cells expressing GPIa/IIa
T2 construct: whole, on cells; also called K562 cell line expressing GPIa/IIa

Binding result, no binding:
B1, B2, B3, B4, B5, B6, B7, B8, B9, B10, B11, B12, B13, B14, B15, B16, B17, B18, B19, B20, B21, B22, B23, B24, B25, B26, B27, B28, B29

Reference: patent US8216581 (University of Pennsylvania, dated 2012)
